Measured values published in patent US20250382602.
Positions count from the first letter of the chain named.

What was measured:
[1] = biological target: T1, Dda 1993 K177W K177W (Enterobacteria phage T4) (UniProt P32270); conditions: nanopore translocation; background mutations not given
T1 sequence: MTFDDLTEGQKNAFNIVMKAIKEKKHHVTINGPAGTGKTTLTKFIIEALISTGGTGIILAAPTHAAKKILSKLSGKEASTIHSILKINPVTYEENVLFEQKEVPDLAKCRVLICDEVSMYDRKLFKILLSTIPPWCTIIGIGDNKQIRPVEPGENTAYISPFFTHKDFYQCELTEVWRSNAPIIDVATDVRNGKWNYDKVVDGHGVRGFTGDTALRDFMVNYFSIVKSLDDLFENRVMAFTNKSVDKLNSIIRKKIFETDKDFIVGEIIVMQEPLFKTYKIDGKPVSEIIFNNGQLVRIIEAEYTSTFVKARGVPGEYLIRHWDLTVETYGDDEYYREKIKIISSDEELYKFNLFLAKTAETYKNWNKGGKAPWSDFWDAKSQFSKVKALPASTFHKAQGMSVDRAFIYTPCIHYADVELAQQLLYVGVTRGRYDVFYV

[2] = biological target: T2, Dda 1993 K177I K177I (Enterobacteria phage T4) (UniProt P32270); conditions: nanopore translocation; background mutations not given
T2 sequence: T1 sequence with W177I

[3] = biological target: T3, Dda 1993 K177D K177D (Enterobacteria phage T4) (UniProt P32270); conditions: nanopore translocation; control is an unspecified Dda variant, background mutations not given
T3 sequence: T1 sequence with W177D

[4] = biological target: T4, Dda 1993 K177E K177E (Enterobacteria phage T4) (UniProt P32270); conditions: nanopore translocation; background mutations not given
T4 sequence: T1 sequence with W177E

[5] = biological target: T5, Dda 1993 K177L K177L (Enterobacteria phage T4) (UniProt P32270); conditions: nanopore translocation; background mutations not given
T5 sequence: T1 sequence with W177L

[6] = biological target: T6, Dda 1993 K177H K177H (Enterobacteria phage T4) (UniProt P32270); conditions: nanopore translocation; background mutations not given
T6 sequence: T1 sequence with W177H

With “barcoded 3.6 kb DNA analyte ligated to sequencing Y adaptor” as the substance, how does the activity (bps speed delta vs control) [1] read?
The activity (bps speed delta vs control) was -23.4.

And the activity (bps speed delta vs control) [2]?
The activity (bps speed delta vs control) was 43.

And the activity (bps speed delta vs control) [3]?
The activity (bps speed delta vs control) was 3.07.

What about the activity (bps speed delta vs control) [4] of the same substance?
Its activity (bps speed delta vs control) is 58.7.

And the activity (bps speed delta vs control) [5]?
The activity (bps speed delta vs control) was 51.4.

What about the activity (bps speed delta vs control) [6] of the same substance?
The activity (bps speed delta vs control) was 10.6.
